Columns and labels:
[1] = biological target: purified human C1q (human) (UniProt P02745); assay: cell-based or functional assay
human CD40 (human) = human CD40 (human) (UniProt P25942); assay: cell-based or functional assay
human CD40 (human), sequence (P25942 21-277): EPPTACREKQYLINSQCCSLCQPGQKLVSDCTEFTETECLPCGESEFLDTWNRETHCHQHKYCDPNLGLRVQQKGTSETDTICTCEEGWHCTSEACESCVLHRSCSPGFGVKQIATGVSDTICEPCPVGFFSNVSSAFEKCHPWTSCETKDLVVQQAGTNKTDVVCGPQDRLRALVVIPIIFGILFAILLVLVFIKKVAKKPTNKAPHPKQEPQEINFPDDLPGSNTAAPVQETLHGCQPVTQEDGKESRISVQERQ

| CD40 response, luciferase reporter cells, EC50 (human CD40 (human)) [µg/mL] | Substance | C1q EC90 (µg/mL), viability assay on WIL2-S SF cells [1] [µg/mL] |
| --- | --- | --- |
| – | IgG1-b12 (antibody) | > 2.5 |
| 0.113 | purified, recombinant CD40 ligand (R&D systems, Cat No. 6420-CL-025/CF) (from UniProt P29965 108-261) | – |

Reference: patent US20200181277A1
